T1: Human ROBO2 overexpressed on HEK293 cells (human, UniProt Q9HCK4 22-1378)
T1 construct: also called ROBO2 cells; native ROBO2
T1 sequence: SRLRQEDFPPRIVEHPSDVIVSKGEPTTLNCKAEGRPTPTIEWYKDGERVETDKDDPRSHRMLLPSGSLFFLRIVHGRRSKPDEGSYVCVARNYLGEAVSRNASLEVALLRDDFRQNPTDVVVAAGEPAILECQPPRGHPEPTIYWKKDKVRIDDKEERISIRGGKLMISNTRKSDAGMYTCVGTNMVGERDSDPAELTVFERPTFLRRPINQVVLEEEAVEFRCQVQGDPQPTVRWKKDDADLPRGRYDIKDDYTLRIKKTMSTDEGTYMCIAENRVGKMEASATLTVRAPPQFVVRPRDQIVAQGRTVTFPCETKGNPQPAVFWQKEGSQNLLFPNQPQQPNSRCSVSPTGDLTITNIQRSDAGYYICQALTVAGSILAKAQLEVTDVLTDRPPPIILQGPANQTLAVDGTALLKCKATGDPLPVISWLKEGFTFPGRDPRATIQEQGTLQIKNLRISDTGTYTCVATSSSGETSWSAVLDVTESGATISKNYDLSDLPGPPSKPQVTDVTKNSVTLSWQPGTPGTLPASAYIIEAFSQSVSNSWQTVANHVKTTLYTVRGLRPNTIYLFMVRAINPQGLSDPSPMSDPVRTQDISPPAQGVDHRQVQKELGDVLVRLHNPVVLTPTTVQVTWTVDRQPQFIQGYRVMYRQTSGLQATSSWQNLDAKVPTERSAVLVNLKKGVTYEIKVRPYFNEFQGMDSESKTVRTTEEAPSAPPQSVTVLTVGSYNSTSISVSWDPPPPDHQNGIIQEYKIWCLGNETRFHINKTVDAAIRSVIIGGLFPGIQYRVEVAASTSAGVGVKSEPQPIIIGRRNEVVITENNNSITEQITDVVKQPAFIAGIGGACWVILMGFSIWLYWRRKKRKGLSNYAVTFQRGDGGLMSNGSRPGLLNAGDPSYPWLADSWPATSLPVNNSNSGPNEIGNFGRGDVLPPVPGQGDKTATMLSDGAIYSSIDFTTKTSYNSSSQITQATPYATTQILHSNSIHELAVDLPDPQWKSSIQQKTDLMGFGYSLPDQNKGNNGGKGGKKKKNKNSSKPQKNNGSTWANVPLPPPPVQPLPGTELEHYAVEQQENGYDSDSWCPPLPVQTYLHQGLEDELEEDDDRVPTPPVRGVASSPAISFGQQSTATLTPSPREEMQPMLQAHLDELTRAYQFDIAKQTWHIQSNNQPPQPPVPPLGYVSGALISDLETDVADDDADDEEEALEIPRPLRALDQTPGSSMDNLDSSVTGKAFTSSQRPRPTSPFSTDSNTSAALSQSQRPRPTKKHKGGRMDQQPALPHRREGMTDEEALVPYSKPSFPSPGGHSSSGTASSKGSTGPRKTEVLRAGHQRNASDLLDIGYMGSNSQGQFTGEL

T2: Human ROBO2 Ig1-Ig2-His (human, UniProt Q9HCK4 31-220)
T2 construct: the His tag is named only in the SPR paragraphs; the Octet and ELISA paragraphs print 'ROBO2 Ig1-Ig2' without a tag; also called ROBO2 Ig1-2; Human ROBO2 Ig 1,2
T2 sequence: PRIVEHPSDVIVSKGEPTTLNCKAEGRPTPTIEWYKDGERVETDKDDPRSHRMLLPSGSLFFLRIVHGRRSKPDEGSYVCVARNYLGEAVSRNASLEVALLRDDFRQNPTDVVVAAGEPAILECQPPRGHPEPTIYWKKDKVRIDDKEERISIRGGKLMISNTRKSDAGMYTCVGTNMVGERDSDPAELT


Legend:
[1] = target: T1, Human ROBO2 overexpressed on HEK293 …; assay: flow cytometry, Geo MFI ROBO2/ROBO1 HEK293 cells, 0.1 µg/ml
[2] = target: T2, Human ROBO2 Ig1-Ig2-His; assay: Octet and SPR, against the parental antibody

| Fold Selectivity for ROBO2/ROBO1 [1] [fold] | Binder | fold affinity improvement [2] [fold] |
| --- | --- | --- |
| > 100 | 93H2 (antibody, human IgG1, kappa, V domains shown, also called parental 93H2; 93H2 mAb) VH: EVQLVQSGAEVKKPGASVKVSCKASGYTFTGYYMHWVRQAPGQGLEWMGWINPNSGATNFPQKFQGRVTMTRDTSITTAYMDLSRLRSDDTAVYYCARESGDDAFDIWGQGTMVTVSS VL: not shown | – |
| – | Abcs35 (antibody, human IgG1, kappa, fully human IgG1; VH of Ab96 with VL of Ab123) heavy: EVQLVQSGAEVKKPGASVKVSCKASGYTFTGYYMHWVRQAPGQGLEWMGWINPKNGDTEFPQKFQGRVTMTRDTSITTAYMDLSRLRSDDTAVYYCARESGDDAFDIWGQGTMVTVSSASTKGPSVFPLAPSSKSTSGGTAALGCLVKDYFPEPVTVSWNSGALTSGVHTFPAVLQSSGLYSLSSVVTVPSSSLGTQTYICNVNHKPSNTKVDKKVEPKSCDKTHTCPPCPAPEAAGAPSVFLFPPKPKDTLMISRTPEVTCVVVDVSHEDPEVKFNWYVDGVEVHNAKTKPREEQYNSTYRVVSVLTVLHQDWLNGKEYKCKVSNKALPAPIEKTISKAKGQPREPQVYTLPPSREEMTKNQVSLTCLVKGFYPSDIAVEWESNGQPENNYKTTPPVLDSDGSFFLYSKLTVDKSRWQQGNVFSCSVMHEALHNHYTQKSLSLSPGK light: DIVMTQSPSSLSASVGDRVTITCRASQSISSYLNWYQQKPGKAPKLLIYAASSLQSGVPSRFSGSGSGTDFTLTISSLQPEDFATYYCQQSVGLFFGGGTKVEIKRTVAAPSVFIFPPSDEQLKSGTASVVCLLNNFYPREAKVQWKVDNALQSGNSQESVTEQDSKDSTYSLSSTLTLSKADYEKHKVYACEVTHQGLSSPVTKSFNRGEC | ~300 |
